# Measured values published in publication PMC7411789, “Application of a Glucose Dehydrogenase-Fused with Zinc Finger Protein to Label DNA Aptamers for the Electrochemical Detection of VEGF”.
# B1: Zif268 target dsDNA (dsDNA)
# DNA 1: GCGTGGGCG
# DNA 2: CGCCCACGC
# Target: ZF-GDH (Zif268 fused to N-terminus of AfGDH) (mouse (Zif268); Aspergillus flavus (GDH), UniProt P08046 336-416)
# Assay: method not stated; states fusion kept dsDNA binding, with ref 25; TBS: 10 mM Tris-HCl, 100 mM NaCl, pH 7.0; washes with 0.05% Tween-20, block 4% skim milk; 25 °C, 1 h
binder,measurement,value
B1,binding result,binds
